Numbering of substitutions follows the chain as printed. Names and notes keep the numbering of the source. Like-named read-outs stand apart in the source and are kept apart here. One block for each binder: values may come before it.
Key:
[1] = molecular target: T1, human FAP on the surface of CHO-K1 cells (CHO-K1-HuFAP) (human, UniProt Q12884 1-760); test: FACS, CHO-K1-HuFAP cells
T1 construct: whole, on cells; also called CHO cell line overexpressing human FAP; FAP on the surface of CHO-K1-HuFAP cells

[2] = molecular target: T2, human CD40 on the surface of HEK293 cells (HEK293-HuCD40) (human, UniProt P25942 21-277); test: cell-based or functional assay
[3] = molecular target: T2, human CD40 on the surface of HEK293 …; test: cell-based or functional assay; remark: listed apart in the source
[4] = molecular target: T2, human CD40 on the surface of HEK293 …; test: FACS, HEK293-HuCD40 cells
[5] = molecular target: T2, human CD40 on the surface of HEK293 …; test: FACS, HEK293-HuCD40 cells; remark: listed apart in the source
[6] = molecular target: T3, human 4-1BB on the surface of HEK293 cells (HEK293-Hu4-1BB) (human, UniProt Q07011 24-255); test: cell-based or functional assay
[7] = molecular target: T1, human FAP on the surface of CHO-K1 …; test: FACS, CHO-K1-HuFAP cells; remark: listed apart in the source
[8] = molecular target: T3, human 4-1BB on the surface of HEK293 …; test: FACS, HEK293-Hu4-1BB cells
[9] = molecular target: T3, human 4-1BB on the surface of HEK293 …; test: cell-based or functional assay; remark: listed apart in the source
[10] = molecular target: T3, human 4-1BB on the surface of HEK293 …; test: FACS, HEK293-Hu4-1BB cells; remark: listed apart in the source
[11] = molecular target: T2, human CD40 on the surface of HEK293 …; test: cell-based or functional assay; remark: listed apart in the source
[12] = molecular target: T2, human CD40 on the surface of HEK293 …; test: FACS, HEK293 cells transiently expressing human CD40
[13] = molecular target: T2, human CD40 on the surface of HEK293 …; test: cell-based or functional assay; remark: listed apart in the source
[14] = molecular target: T4, h-FAP-His (recombinant human fibroblast activation protein, Leu26-Asp760, His-tagged) (human, UniProt Q12884 26-760); test: ELISA, plate coated with human FAP-His
T4 construct: range 26-760; Bought protein with a His tag; also called human FAP-His protein; His-tagged FAP recombinant protein

[15] = molecular target: T4, h-FAP-His (recombinant human fibroblast …); test: SPR, antibody captured by anti-human IgG (Fc) on CM5 chip, h-FAP-His as analyte
[16] = molecular target: T1, human FAP on the surface of CHO-K1 …; test: FACS, CHO cell line overexpressing human FAP
[17] = molecular target: T3, human 4-1BB on the surface of HEK293 …; test: cell-based or functional assay; remark: listed apart in the source
[18] = molecular target: T3, human 4-1BB on the surface of HEK293 …; test: FACS, HEK293-Hu4-1BB cells; remark: listed apart in the source
[19] = molecular target: T3, human 4-1BB on the surface of HEK293 …; test: FACS, HEK293-Hu4-1BB cells; remark: listed apart in the source
[20] = molecular target: T3, human 4-1BB on the surface of HEK293 …; test: FACS, HEK293-Hu4-1BB cells; remark: listed apart in the source
[21] = molecular target: T3, human 4-1BB on the surface of HEK293 …; test: cell-based or functional assay; remark: listed apart in the source

B1: Ab10-A12V2-2 (FAP/CD40 bispecific antibody molecule, control) (bispecific antibody, human IgG1, kappa, L234A L235A)
heavy: not shown
light: DIQMTQSPSSVSASVGDRVTITCRASQGISSWLAWYQQKPGKAPKLLIYAASSLQSGVPSRFSGSGSGTDFTLTISSLQPEDFATYYCQQANSFPPAFGQGTKVEIKRTVAAPSVFIFPPSDEQLKSGTASVVCLLNNFYPREAKVQWKVDNALQSGNSQESVTEQDSKDSTYSLSSTLTLSKADYEKHKVYACEVTHQGLSSPVTKSFNRGEC
EC50 [1]: 1.72 nM | Maximum fluorescence value [1]: 77200 | CD40/NF-κB reporter (HEK-Blue CD40L), 4-1BB-crosslinked, Fold change in Emax [2]: 5 fold | CD40/NF-κB reporter (HEK-Blue CD40L), FAP-crosslinked, EC50 [2]: 0.23 nM | CD40/NF-κB reporter (HEK-Blue CD40L), FAP-crosslinked, Fold change in Emax [2]: 6.47 fold | CD40/NF-κB reporter (HEK-Blue CD40L), uncrosslinked, Fold change in Emax [2]: 4.57 fold | CD40/NF-κB reporter (HEK-Blue CD40L), 4-1BB-crosslinked, Fold change in Emax [3]: 4.27 fold | CD40/NF-κB reporter (HEK-Blue CD40L), FAP-crosslinked, EC50 [3]: 0.35 nM | CD40/NF-κB reporter (HEK-Blue CD40L), FAP-crosslinked, Fold change in Emax [3]: 11.3 fold | CD40/NF-κB reporter (HEK-Blue CD40L), uncrosslinked, Fold change in Emax [3]: 3.73 fold | EC50 [4]: 4.77 nM | Maximum fluorescence value [4]: 54000 | EC50 [5]: 6.85 nM | Maximum fluorescence value [5]: 55200 | 4-1BB/NF-κB luciferase reporter, CD40-crosslinked, Fold change in Emax [6]: 1.07 fold | 4-1BB/NF-κB luciferase reporter, FAP-crosslinked, Fold change in Emax [6]: 1.01 fold | 4-1BB/NF-κB luciferase reporter, uncrosslinked, Fold change in Emax [6]: 1.1 fold | EC50 [7]: 2.73 nM | Maximum fluorescence value [7]: 82700 | Maximum fluorescence value [8]: 70 | 4-1BB/NF-κB luciferase reporter, CD40-crosslinked, Fold change in Emax [9]: 1.1 fold | 4-1BB/NF-κB luciferase reporter, FAP-crosslinked, Fold change in Emax [9]: 1.05 fold | 4-1BB/NF-κB luciferase reporter, uncrosslinked, Fold change in Emax [9]: 1.06 fold | Maximum fluorescence value [10]: 73 | CD40/NF-κB reporter (HEK-Blue CD40L), 4-1BB-crosslinked, Fold change in Emax [11]: 8.42 fold | CD40/NF-κB reporter (HEK-Blue CD40L), FAP-crosslinked, EC50 [11]: 0.025 nM | CD40/NF-κB reporter (HEK-Blue CD40L), FAP-crosslinked, Fold change in Emax [11]: 11.9 fold | CD40/NF-κB reporter (HEK-Blue CD40L), uncrosslinked, Fold change in Emax [11]: 7.05 fold

B2: anti-CD40 nanobody A297 linked to human IgG1-Fc (C220A, S267E, L328F) (Fc fusion)
chain: QVQLVESGGGMVEPGGSLRLSCAASGFTFSRYGMKWVRQAPGKGPEWVSTINSHGDTTYYADSVKGRFTISRDNAQNTVYLQMNSLKPEDTALYYCLRIDYSDYSSRGQGTQVTVSSEPKSADKTHTCPPCPAPELLGGPSVFLFPPKPKDTLMISRTPEVTCVVVDVEHEDPEVKFNWYVDGVEVHNAKTKPREEQYNSTYRVVSVLTVLHQDWLNGKEYKCKVSSKAFPAPIEKTISKAKGQPREPQVYTLPPSRDELTKNQVSLTCLVKGFYPSDIAVEWESNGQPENNYKTTPPVLDSDGSFFLYSKLTVDKSRWQQGNVFSCSVMHEALHNHYTQKSLSLSPGK
notes: VHH-Fc; no linker between VHH and Fc is stated
EC50 [12]: 1.12 nM | FcγRIIb-mediated activation of HEK-Blue CD40L cells, EC50 [13]: 0.243 nM

B5: humanized anti-4-1BB nanobody C5_V2 linked to human IgG1-Fc (Fc fusion)
chain: QVQLVESGGGLVQPGGSLRLSCSASGFTFSSYAMSWVRQAPGKGLEWVSDINSGGESTFYEDSVKGRFTISRDNAKNTLYLQMNSLRAEDTAVYYCAKHPLTFTIATMNDYDYWGQGTLVTVSSEPKSADKTHTCPPCPAPELLGGPSVFLFPPKPKDTLMISRTPEVTCVVVDVEHEDPEVKFNWYVDGVEVHNAKTKPREEQYNSTYRVVSVLTVLHQDWLNGKEYKCKVSSKAFPAPIEKTISKAKGQPREPQVYTLPPSRDELTKNQVSLTCLVKGFYPSDIAVEWESNGQPENNYKTTPPVLDSDGSFFLYSKLTVDKSRWQQGNVFSCSVMHEALHNHYTQKSLSLSPGK
Activation of HEK293-4-1BB cells (NF-κB reporter), Fold change in Emax [17]: 1.37 fold | FcγRIIb-mediated activation of HEK293-4-1BB cells (NF-κB reporter), Fold change in Emax [17]: 2.02 fold | EC50 [18]: 1.62 nM | Maximum fluorescence value [18]: 1030 | EC50 [19]: 0.98 nM | EC50 [20]: 0.98 nM | Maximum fluorescence value [20]: 53700

B6: C5_V2-YTI (TCE-optimized C5_V2, F99Y Kabat) linked to human IgG1-Fc (Fc fusion)
chain: B5 chain with F103Y
EC50 [19]: 0.62 nM | EC50 [20]: 0.62 nM | Maximum fluorescence value [20]: 53800

Other lines, results leading:

EC50 [12]: 1.25 nM | FcγRIIb-mediated activation of HEK-Blue CD40L cells, EC50 [13]: 0.006 nM
B3: humanized anti-CD40 nanobody A297V3 linked to human IgG1-Fc (C220A, S267E, L328F) (Fc fusion)
chain: EVQLVESGGGLVQPGGSLRLSCAASGFTFSRYGMKWVRQAPGKGLEWVSTINSHGDTTYYADSVKGRFTISRDNAKNSLYLQMNSLRAEDTAVYYCLRIDYSDYSSRGQGTLVTVSSEPKSADKTHTCPPCPAPELLGGPSVFLFPPKPKDTLMISRTPEVTCVVVDVEHEDPEVKFNWYVDGVEVHNAKTKPREEQYNSTYRVVSVLTVLHQDWLNGKEYKCKVSSKAFPAPIEKTISKAKGQPREPQVYTLPPSRDELTKNQVSLTCLVKGFYPSDIAVEWESNGQPENNYKTTPPVLDSDGSFFLYSKLTVDKSRWQQGNVFSCSVMHEALHNHYTQKSLSLSPGK
notes: VHH-Fc

EC50 [14]: 92 µg/mL | Kd [15]: 0.245 nM | Ratio of KD of 28H1 to KD of test antibody [15]: 5.3 | Ratio of Kd of 28H1 to Kd of test antibody [15]: 3.5 | koff [15]: 7.28e-05 s⁻¹ | kon [15]: 297000 M⁻¹ s⁻¹ | EC50 [16]: 0.000432 µg/mL
B4: anti-human FAP monoclonal antibody Ab10 (antibody, human IgG1, kappa, L234A L235A, V domains shown)
VH: QVQLQQSGVEVKKPGASVTVSCRASGYSFADHFIHWVRQAPGQGFQWMGWINPNRGVTHHAQDFQGRVAMTRDMSTDTVYMELTSLRSDDTAVYYCARDASLTARPYYFYGFDVWGQGTLVTVSS
VL: DIQMTQSPSSVSASVGDRVTITCRASQGISSWLAWYQQKPGKAPKLLIYAASSLQSGVPSRFSGSGSGTDFTLTISSLQPEDFATYYCQQANSFPPAFGQGTKVEIKR
notes: Full-length heavy and light chains with human constant regions; also called anti-FAP antibody Ab10

Activation of HEK293-4-1BB cells (NF-κB reporter), Fold change in Emax [17]: 1.7 fold | FcγRIIb-mediated activation of HEK293-4-1BB cells (NF-κB reporter), Fold change in Emax [17]: 2.61 fold | 4-1BB/NF-κB luciferase reporter, FcγRIIb crosslinking, EC50 [21]: 0.027 nM | 4-1BB/NF-κB luciferase reporter, no FcγRIIb crosslinking, EC50 [21]: 2.19 nM | EC50 [18]: 1.18 nM | Maximum fluorescence value [18]: 1000 | EC50 [19]: 1.64 nM | EC50 [20]: 1.64 nM | Maximum fluorescence value [20]: 39700
B7: Urelumab (positive control anti-4-1BB antibody) (antibody, V domains shown)
VH: QVQLQQWGAGLLKPSETLSLTCAVYGGSFSGYYWSWIRQSPEKGLEWIGEINHGGYVTYNPSLESRVTISVDTSKNQFSLKLSSVTAADTAVYYCARDYGPGNYDWYFDLWGRGTLVTVSS
VL: EIVLTQSPATLSLSPGERATLSCRASQSVSSYLAWYQQKPGQAPRLLIYDASNRATGIPARFSGSGSGTDFTLTISSLEPEDFAVYYCQQRSNWPPALTFGGGTKVEIK

Reference: EP4674868A1 (Jiangsu Hengrui Pharmaceuticals Co., Ltd., dated 2026)
